Our source for the K half and stoichiometry N values is publication PMC6007307.

For data set [1], the system named is IFIT1 (human). The data set can be described thus: primer extension inhibition (toeprinting). The following applies: 5' cap0 (m7GpppN, no 2'-O-methylation; ScriptCap); Toeprinting at equilibrium, [IFIT1] >= 10x [mRNA]; binding buffer, salt, pH and temperature not in the material (complexes assembled in 20 mM Tris pH 7.5 …).
For data set [2], the system named is IFIT1;IFIT2;IFIT3 (human;human;human). Description: primer extension inhibition (toeprinting). The following applies: 5' cap0 (m7GpppN, no 2'-O-methylation; ScriptCap); Toeprinting at equilibrium, [IFIT1] >= 10x [mRNA]; binding buffer, salt, pH and temperature not in the material (complexes assembled in 20 mM Tris pH 7.5 …).
Data set [3] relates to IFIT1;IFIT3 (human;human). Description: primer extension inhibition (toeprinting). Particulars: 5' cap0 (m7GpppN, no 2'-O-methylation; ScriptCap); Toeprinting at equilibrium, [IFIT1] >= 10x [mRNA]; binding buffer, salt, pH and temperature not in the material (complexes assembled in 20 mM Tris pH 7.5 …).
The target of data set [4] is IFIT2 (recombinant) (human) (UniProt P09913). The data set can be described thus: SEC-MALS; equal amounts of IFIT2 and IFIT3 mixed and incubated at 4°C for 1 h, SEC buffer.
Data set [5] has the same target. The data set can be described thus: SEC-MALS; each protein alone at varying concentrations; Superdex 200 Increase 10/300, room temperature, 20 mM Tris pH 7.5, 150 mM KCl, 1 mM DTT. On the technique in general: Size exclusion chromatography separates by hydrodynamic size, large species first.

Several values for one entry are separate records, joined by “and”; a condition that tells them apart may be missing. Equal entries are not always repeated.

IFIT2 (recombinant), sequence (P09913 whole entry): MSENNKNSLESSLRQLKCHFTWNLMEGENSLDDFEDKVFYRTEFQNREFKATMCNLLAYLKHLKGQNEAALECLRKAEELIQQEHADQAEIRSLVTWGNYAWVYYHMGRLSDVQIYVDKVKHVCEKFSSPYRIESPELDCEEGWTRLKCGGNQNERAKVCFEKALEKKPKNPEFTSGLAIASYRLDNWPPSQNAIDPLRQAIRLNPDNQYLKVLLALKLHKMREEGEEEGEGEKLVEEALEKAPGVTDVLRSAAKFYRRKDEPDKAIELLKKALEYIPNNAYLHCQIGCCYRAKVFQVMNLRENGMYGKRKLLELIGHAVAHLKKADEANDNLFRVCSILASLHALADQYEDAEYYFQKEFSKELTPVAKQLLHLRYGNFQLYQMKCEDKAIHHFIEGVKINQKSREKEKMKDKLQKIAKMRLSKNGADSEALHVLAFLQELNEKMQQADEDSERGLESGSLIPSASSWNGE

With cap0-β-globin Fluc mRNA, the K half was 40 nM in data set [1], 19 nM in data set [2] and 19 nM in data set [3].
A word on the stoichiometry N: it is the number of molecules, sites or subunits per partner or assembly. As for “IFIT2 (recombinant) (from UniProt P09913 1-472) (natural protein)”, the stoichiometry N in data set [4] is 2; in data set [5], 2 and 4.
